Changes are numbered by the printed parent chain.

The target of the experiment is T1, human serum albumin (HSA) (human, UniProt P02768 25-609).
T1 construct: Coated on ELISA plates or immunotubes; also called HuSA
Description: phage ELISA on coated HSA.

T1 sequence (P02768 25-609 limits assumed): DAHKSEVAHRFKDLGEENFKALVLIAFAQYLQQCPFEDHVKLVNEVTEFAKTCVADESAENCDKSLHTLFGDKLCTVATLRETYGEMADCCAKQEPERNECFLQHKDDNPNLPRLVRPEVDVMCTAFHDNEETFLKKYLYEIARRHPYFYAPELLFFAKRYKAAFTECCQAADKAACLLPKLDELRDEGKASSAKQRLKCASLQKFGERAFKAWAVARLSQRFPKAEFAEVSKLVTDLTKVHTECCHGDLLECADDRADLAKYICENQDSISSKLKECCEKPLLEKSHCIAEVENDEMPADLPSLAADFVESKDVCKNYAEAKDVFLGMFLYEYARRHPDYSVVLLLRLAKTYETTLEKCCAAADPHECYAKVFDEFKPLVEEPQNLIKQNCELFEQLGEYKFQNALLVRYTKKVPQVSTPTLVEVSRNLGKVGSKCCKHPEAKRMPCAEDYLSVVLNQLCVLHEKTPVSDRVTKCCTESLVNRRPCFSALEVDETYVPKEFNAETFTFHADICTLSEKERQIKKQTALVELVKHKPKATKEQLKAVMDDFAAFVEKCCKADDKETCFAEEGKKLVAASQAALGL

B1: modified igNAR peptide clone B10 (VNAR)
VNAR: RVDQTPRIATKETGESLTINCVLRDTACALDSTNWYRTKLGSTKEQTISIGGRYSETADEGSNPASLTIRDLRVEDSGTYKCKAAITPFDNWYECLGTRAEGAGTVLTVK
With B1, the binding result was “binds”.

B2: representative full igNAR clone of SEQ ID NO: 8 (VNAR)
VNAR: B1 VNAR with A58V, P64S
For the molecule B2, the binding result is listed as “binds”.

Values taken from US20140154241A1 (CYCLOGENIX, published 2014).
